Test results as given in article PMC11286772, “Structural basis of antagonist selectivity in endothelin receptors” (Cell Discovery, 2024).

Biological target: T1, ETA, wild type, as used in the size exclusion chromatography analysis with Fab301 (Homo sapiens, UniProt P25101)
T1 construct: endothelin receptor type A (ETA), human; Probably one of the insect cell constructs m1 or m3; also called WT; WT ETA
Experiment: SEC; retention time of each ETA ECL2 alanine mutant–Fab301 complex against the WT–Fab301 complex

T1 sequence (P25101 21-427): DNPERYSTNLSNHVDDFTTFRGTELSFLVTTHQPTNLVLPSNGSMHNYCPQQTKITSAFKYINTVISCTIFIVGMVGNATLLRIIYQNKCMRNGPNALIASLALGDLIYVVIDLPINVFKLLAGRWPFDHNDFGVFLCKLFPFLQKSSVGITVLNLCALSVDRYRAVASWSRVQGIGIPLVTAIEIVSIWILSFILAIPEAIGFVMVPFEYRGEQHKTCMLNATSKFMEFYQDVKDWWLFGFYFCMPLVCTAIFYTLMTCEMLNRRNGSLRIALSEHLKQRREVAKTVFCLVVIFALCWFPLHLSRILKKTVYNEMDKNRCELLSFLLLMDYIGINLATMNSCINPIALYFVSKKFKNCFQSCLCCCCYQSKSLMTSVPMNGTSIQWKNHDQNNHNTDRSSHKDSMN

B1: Fab301, Fab fragment of the anti-ETA monoclonal antibody Getagozumab (Fab, V domains shown)
VH: QVTLKESGPTLVKPTQTLTLTCTFSGFSLTTSGLGVAWIRQPPGKALEWLAHIWSDGDTRYYPALKNRLTITKDTSKNQVVLTMTNMDPVDTATYYCAHMKDDSLYFDNWGQGTLVTVSS
VL: EIVLTQSPDFQSVTPKEKVTITCRASQNIGTSIHWYQQKPDQYPKLLIKYASKSISGVPSRFSGSGSGTDFTLTINSLEAEDAATYYCQHSYSFPWTFGQGTKVEIK
notes: Purified on Ni-NTA, so one chain probably carries a His tag; In the ambrisentan and zibotentan maps the dynamic regions of Fab301 were masked out; also called ETA-specific antibody; Getagozumab Fab; source: Hi5 insect cells, baculovirus (pFastBac Dual), from the culture supernatant, purified (Ni-NTA, Superdex 200)
**Q.** Does B1 bind?
**A.** Result: binds
